In article PMC3156696 (Developmental cell, 2010):

How the values were obtained:
[1] = biological target: GMPCPP-stabilized microtubules (unlabelled, polymerized bovine brain tubulin) (bovine, UniProt Q6B856 1-445); assay: co-sedimentation
[2] = biological target: soluble αβ-tubulin heterodimer purified from bovine brain (bovine) (UniProt Q6B856)
[3] = biological target: soluble αβ-tubulin heterodimer purified from bovine brain (bovine) (UniProt Q6B856); assay: SEC
AUC = biological target: the molecule itself; assay: AUC
[4] = biological target: soluble αβ-tubulin heterodimer purified from bovine brain (bovine) (UniProt Q6B856); assay: AUC

Binder | stoichiometry N [1] | MT rescue frequency in TIRF dynamics assay, 6 μM tubulin, Cls1p 20 nM to 140 nM [2] [rescues/min] | stoichiometry N (Cls1p molecules per αβ-tubulin dimer) [3] | stoichiometry N (AUC) | stoichiometry N (tubulin dimer per complex) [4]
Cls1p^604 (residues 1-604) (domain or fragment, S. pombe, UniProt O42874 1-604, looked up) MADKDAQDFLKFLKSNASTDEKTRCLDTLRSFFNKNNIPNADLGLFVECFRLALTTVNPLLLRSSVACFETFLRRLRAQYPTWLKFRVPMLKNLVIDHIASRDLQKRVLNILIDLWHFNPSEIEKSLIHLSTTSKSAETRIQCFKWFVLAHNAHLSFDVKSLRPALYINLENANPSVREEAKEVLLLIYKNLSTSAKMQFITDVETTSGLRREILQSLVEELSLISSSSEVIIVQNSASSFQPAPFMTAVATLYPGVELENVKPLLANFSKQLEQDSASMLPAFEGRETEQNWSVRQDSVLRLRQYLRGNACIDYLPELLSVLKTLLPGILLALLSLRTTLSSSAIQLIKEMAIILKSNIDPFLELILPNLLKVCSVTKKLASQAANVTFAAILVNCGVLSRNLSFISLAAHDTNAQLRVFSSNWIFMLISLSPELKNLASLQTNLKAFEKLICRGLADSNSQVREVYRKSFWKLSEYFPSVQEELTNTLEPSVLKQLHLANPNRQAASFNFSGPKRAPIRPLSNLRSFSKSQKEETSSNSSNSSGTRRLGLPQRATPASRERVLPYTRSQAFHSTSLPPSLPSGHSPSIAIPSKRSVSATIKD | ~3 polymerized tubulin dimers per Cls1 molecule |  |  |  | 
full-length S. pombe Cls1p (residues 1-1462) (natural protein, UniProt O42874 1-1462, looked up) MADKDAQDFLKFLKSNASTDEKTRCLDTLRSFFNKNNIPNADLGLFVECFRLALTTVNPLLLRSSVACFETFLRRLRAQYPTWLKFRVPMLKNLVIDHIASRDLQKRVLNILIDLWHFNPSEIEKSLIHLSTTSKSAETRIQCFKWFVLAHNAHLSFDVKSLRPALYINLENANPSVREEAKEVLLLIYKNLSTSAKMQFITDVETTSGLRREILQSLVEELSLISSSSEVIIVQNSASSFQPAPFMTAVATLYPGVELENVKPLLANFSKQLEQDSASMLPAFEGRETEQNWSVRQDSVLRLRQYLRGNACIDYLPELLSVLKTLLPGILLALLSLRTTLSSSAIQLIKEMAIILKSNIDPFLELILPNLLKVCSVTKKLASQAANVTFAAILVNCGVLSRNLSFISLAAHDTNAQLRVFSSNWIFMLISLSPELKNLASLQTNLKAFEKLICRGLADSNSQVREVYRKSFWKLSEYFPSVQEELTNTLEPSVLKQLHLANPNRQAASFNFSGPKRAPIRPLSNLRSFSKSQKEETSSNSSNSSGTRRLGLPQRATPASRERVLPYTRSQAFHSTSLPPSLPSGHSPSIAIPSKRSVSATIKDESKTFELLKNIQRKYELILSGSSVDLPSAEFLSSNLTDALYSGSSICYSLIFSHSLLDLTFQYVDIASLLSQFLLCVYDPSNVGHSFALASFPYVKSHYDAHKYFPIVFDVLMNISNMAPHVKVFPFNTNQKRLIIHGCLLWLKEISDTKLNQLENKPFFVTDKLRYYSSKILAMTAKTKLTSKNWIPLSGLLFSLRAHDTFMFDGLLDRLNEESRTKLVSSWSKQDAFDYSKSSTHQEHLSKNLPTLNTSSSSNSSQTDLLVPHGKGETKETEMQSPIESKEGLLSKDTHIESPQGTSLEKENEEEGKNPVESNCSEESLDDHNIDQTLVNKKETLAQDSESLLQKNNALNEKGFENQFGLSSSAAKVLNKDTLDHVSGPISNSVSSSFKDFTRTPFKEINGERETGFELTSYVNALSKKDDINVQKTENVDESVGLNAMFMDNVNQDSLNSVDQSSGKDKLLLTSSTPNKPTTFFMPANEEILGSPAKDYDIHDQSYSVHELHSENMRENVGQSSLIYNNRDYMNTPMNDFSLSFSEIKGGILESPVESPMTGTISPIDADESVLHDIPAYESLNKSESNKYQEQAYSTPLHHTLNVLPKNKWILSRMHKMENGSPINVDKNLDDAVAALEAAVKELNDGSVNTKTLKFCIKVCKETPSMLYHSHGLLPAILHYIESNNSAMHISDCLILLHEFLVQGYQGVDMHTYHNIICILIEKAEKCKDEPVILAGIEDNITLIAEIADLQGLYEFTQQRLQSLNTETGEKSAPLLLMLLSAILMRLKDLEFLETKDLLRHVVLKYIDHTNPEIRKATFNVCLAVNTIVNNVDETFSILGGLNEGQRLLFMHYLKMKSDEKN | ~6 polymerized tubulin dimers per Cls1p monomer | 2.15 | 2 |  | 
Cls1p-GFP (full-length Cls1p with GFP fused to its C-terminus) (natural protein, S. pombe, UniProt O42874 1-1462, looked up) MADKDAQDFLKFLKSNASTDEKTRCLDTLRSFFNKNNIPNADLGLFVECFRLALTTVNPLLLRSSVACFETFLRRLRAQYPTWLKFRVPMLKNLVIDHIASRDLQKRVLNILIDLWHFNPSEIEKSLIHLSTTSKSAETRIQCFKWFVLAHNAHLSFDVKSLRPALYINLENANPSVREEAKEVLLLIYKNLSTSAKMQFITDVETTSGLRREILQSLVEELSLISSSSEVIIVQNSASSFQPAPFMTAVATLYPGVELENVKPLLANFSKQLEQDSASMLPAFEGRETEQNWSVRQDSVLRLRQYLRGNACIDYLPELLSVLKTLLPGILLALLSLRTTLSSSAIQLIKEMAIILKSNIDPFLELILPNLLKVCSVTKKLASQAANVTFAAILVNCGVLSRNLSFISLAAHDTNAQLRVFSSNWIFMLISLSPELKNLASLQTNLKAFEKLICRGLADSNSQVREVYRKSFWKLSEYFPSVQEELTNTLEPSVLKQLHLANPNRQAASFNFSGPKRAPIRPLSNLRSFSKSQKEETSSNSSNSSGTRRLGLPQRATPASRERVLPYTRSQAFHSTSLPPSLPSGHSPSIAIPSKRSVSATIKDESKTFELLKNIQRKYELILSGSSVDLPSAEFLSSNLTDALYSGSSICYSLIFSHSLLDLTFQYVDIASLLSQFLLCVYDPSNVGHSFALASFPYVKSHYDAHKYFPIVFDVLMNISNMAPHVKVFPFNTNQKRLIIHGCLLWLKEISDTKLNQLENKPFFVTDKLRYYSSKILAMTAKTKLTSKNWIPLSGLLFSLRAHDTFMFDGLLDRLNEESRTKLVSSWSKQDAFDYSKSSTHQEHLSKNLPTLNTSSSSNSSQTDLLVPHGKGETKETEMQSPIESKEGLLSKDTHIESPQGTSLEKENEEEGKNPVESNCSEESLDDHNIDQTLVNKKETLAQDSESLLQKNNALNEKGFENQFGLSSSAAKVLNKDTLDHVSGPISNSVSSSFKDFTRTPFKEINGERETGFELTSYVNALSKKDDINVQKTENVDESVGLNAMFMDNVNQDSLNSVDQSSGKDKLLLTSSTPNKPTTFFMPANEEILGSPAKDYDIHDQSYSVHELHSENMRENVGQSSLIYNNRDYMNTPMNDFSLSFSEIKGGILESPVESPMTGTISPIDADESVLHDIPAYESLNKSESNKYQEQAYSTPLHHTLNVLPKNKWILSRMHKMENGSPINVDKNLDDAVAALEAAVKELNDGSVNTKTLKFCIKVCKETPSMLYHSHGLLPAILHYIESNNSAMHISDCLILLHEFLVQGYQGVDMHTYHNIICILIEKAEKCKDEPVILAGIEDNITLIAEIADLQGLYEFTQQRLQSLNTETGEKSAPLLLMLLSAILMRLKDLEFLETKDLLRHVVLKYIDHTNPEIRKATFNVCLAVNTIVNNVDETFSILGGLNEGQRLLFMHYLKMKSDEKN |  |  |  | 2 | 1
